From patent US20240238445A1, “INHIBITORS AND USES THEREOF” (NEURACLE SCIENCE CO., LTD., priority 2021, published 2024)
Square brackets hold non-standard residues; d marks the D form. Ends that are not written are not given here.

B1: full-length LRRC4C protein: full-length ectodomain of LRRC4C protein, amino acids 45-527 of SEQ ID NO: 3, conjugated to human Fc (protein)
chain: QTCPSVCSCSNQFSKVICVRKNLREVPDGISTNTRLLNLHENQIQIIKVNSFKHLRHLEILQLSRNHIRTIEIGAFNGLANLNTLELFDNRLTTIPNGAFVYLSKLKELWLRNNPIESIPSYAFNRIPSLRRLDLGELKRLSYISEGAFEGLSNLRYLNLAMCNLREIPNLTPLIKLDELDLSGNHLSAIRPGSFQGLMHLQKLWMIQSQIQVIERNAFDNLQSLVEINLAHNNLTLLPHDLFTPLHHLERIHLHHNPWNCNCDILWLSWWIKDMAPSNTACCARCNTPPNLKGRYIGELDQNYFTCYAPVIVEPPADLNVTEGMAAELKCRASTSLTSVSWITPNGTVMTHGAYKVRIAVLSDGTLNFTNVTVQDTGMYTCMVSNSVGNTTASATLNVTAATTTPFSYFSTVTVETMEPSQDEARTTDNNVGPTPVVDWETTNVTTSLTPQSTRSTEKTFTIPVTDINSGIPGIDEVMKTTK
modifications: conjugated to human Fc
B2: LRRC4B (36-576): full-length ectodomain of LRRC4B protein, amino acids 36-576 of SEQ ID NO: 2; FLAG-tagged or conjugated to human Fc (protein)
chain: AGGGGVAVTSAAGGGSPPATSCPVACSCSNQASRVICTRRDLAEVPASIPVNTRYLNLQENGIQVIRTDTFKHLRHLEILQLSKNLVRKIEVGAFNGLPSLNTLELFDNRLTTVPTQAFEYLSKLRELWLRNNPIESIPSYAFNRVPSLRRLDLGELKRLEYISEAAFEGLVNLRYLNLGMCNLKDIPNLTALVRLEELELSGNRLDLIRPGSFQGLTSLRKLWLMHAQVATIERNAFDDLKSLEELNLSHNNLMSLPHDLFTPLHRLERVHLNHNPWHCNCDVLWLSWWLKETVPSNTTCCARCHAPAGLKGRYIGELDQSHFTCYAPVIVEPPTDLNVTEGMAAELKCRTGTSMTSVNWLTPNGTLMTHGSYRVRISVLHDGTLNFTNVTVQDTGQYTCMVTNSAGNTTASATLNVSAVDPVAAGGTGSGGGGPGGSGGVGGGSGGYTYFTTVTVETLETQPGEEALQPRGTEKEPPGPTTDGVWGGGRPGDAAGPASSSTTAPAPRSSRPTEKAFTVPITDVTENALKDLDDVMKTTK
modifications: FLAG tag or human Fc

Assays:
[1] = tested on: mouse primary cortical neurons; assay: Neurite growth of mouse primary cortical neurons in vitro; assay type: cell-based; conditions: treated days 1 and 2, assessed day 3, anti-beta-tubulin III; LRRC4B fragment 0.006 to 60 nM; versus control
Experimental: Next, primary cortical neurons (day 1 postnatal) were cultured in vitro with varying concentrations (0.006 to 60 nM) of the LRRC4B (453-576) protein fragment (i.e., amino acid residues 453-576 of SEQ ID NO: 2; SEQ ID NO: 7), and then at day 3 post-initial culture, the effect on neurite growth was assessed by immunostaining the cells with anti-beta-tubulin III antibody. Cells cultured with DMSO (“Veh”) were used as control.
Mouse hippocampal neurons were treated with LRRC4B peptides at 1 and 2 DIV to determine neurite growth. It was measured by using 3 different parameters, which are total neurites length, number of primary and secondary neurites. After the neurons were stained with beta-tubulin III at 3 DIV, neurites length and branch points were measured using Fiji (Image J, NIH, Bethesda). Individual neurons were selected by hand and these parameters were counted using the Simple neurite tracer plugin. Mouse spinal motor neurons sampled at postnatal day 1 were treated with 10 nM of NS101 and LRRC4B-peptides (dFB-dWY-JM31 and dFB-DY-JM31) at 1 and 2 DIV and immunostained with Tau-5 antibody at 3 DIV. Total neurite length and number of somas in images were measured by Neurphology Image J plugin.

FAM19A5 protein [2] = target: T1, FAM19A5 protein (Homo sapiens, UniProt Q7Z5A7); assay: ELISA binding of recombinant FAM19A5 to coated hFc-conjugated LRRC4 family ectodomains, fragments or synthetic peptides; conditions: for binding to FAM19A5 protein (ELISA, in words): coated 100 nM/well, FAM19A5 up to 10 nM
Experimental: Next, to confirm the above co-immunoprecipitation results, an ELISA assay was used to measure the binding of the FAM19A5 protein to either the full-length ectodomain of members of LRRC4 protein family or various LRRC4B ectodomain protein fragments. Specifically, an ELISA plate was coated with one of the following LRRC4B ectodomain protein, which was conjugated to human Fc (100 nM/well): (1) full-length ectodomain of LRRC4 protein (amino acid residues 39-527 of SEQ ID NO: 1) (SEQ ID NO: 4); (2) full-length ectodomain of LRRC4B protein (amino acids 36-576 of SEQ ID NO: 2; i.e., construct #7 in Table 6) (SEQ ID NO: 5); (3) full-length ectodomain of LRRC4C protein (amino acids 45-527 of SEQ ID NO: 3) (SEQ ID NO: 6); (4) LRRC4B ectodomain fragment (amino acids 453-576 of SEQ ID NO: 2; i.e., construct #11 in Table 6) (SEQ ID NO: 7); (5) LRRC4B ectodomain fragment (amino acids 484-576 of SEQ ID NO: 2; i.e., construct #12 in Table 6) (SEQ ID NO: 8); (6) LRRC4B ectodomain fragment (amino acids 482-576 of SEQ ID NO: 2) (SEQ ID NO: 9); (7) LRRC4B ectodomain fragment (amino acids 482-497 of SEQ ID NO: 2) (SEQ ID NO: 10); and (8) LRRC4B ectodomain fragment (amino acids 498-576 of SEQ ID NO: 2; i.e., construct #13 in Table 6) (SEQ ID NO: 11). Then, recombinant FAM19A5 proteins (0.005, 0.01, 0.025, 0.05, 0.1, 0.25, 0.5, 1, 2.5, 5, and 10 nM) were added to the relevant wells, and the plates were incubated at 37° C. for 1 hour. Afterwards, the amount of LRRC4B-bound FAM19A5 protein was detected using HRP-conjugated anti-FAM19A5 (1-65) antibody.
As further confirmation, three synthetic polypeptides comprising amino acids 484-497 of SEQ ID NO: 2 (i.e., YTYFTTVTVETLET; SEQ ID NO: 65) were constructed: (1) FB-16 (GYTYFTTVTVETLETQ; SEQ ID NO: 17), (2) FB-20 ([…]; SEQ ID NO: 18), and (3) FB-28 ([…]; SEQ ID NO: 19). The peptides differed in their total length. The ability of these polypeptides to bind to recombinant FAM19A5 protein was assessed using an ELISA assay as described above.

[3] = target: interaction between His-TEV LRRC4B and rFAM19A5 (Homo sapiens, UniProt Q7Z5A7); assay: Competitive inhibition assay (IC50), plate coated with His-TEV LRRC4B; assay type: binding
Experimental: To further assess the inhibitory effect of the FB-21 mutants, the ability of additional FB-21 mutants described in Example 9 were tested for their ability to inhibit the interaction between FAM19A5 protein and LRRC4B protein. Briefly, plates were coated with 100 nM of His-TEV LRRC4B and then 1 ng/mL of rFAM19A5 was incubated at 37° C. in the presence of increasing concentrations of the FB-21 peptide fragments (0.3, 1, 3, 10, 30, 100, 300, 1000, 3000 and 10000 nM). The LRRC4B-bound FAM19A5 levels were measured using HRP-conjugated 1-65 SS01 antibody. As shown in FIG. 22B (see Table 15 for IC50), most (if not all) of the FB-21 mutants had improved ability in inhibiting the interaction between LRRC4B and recombinant FAM19A5 protein.
Next, to assess whether other properties of the polypeptides described herein can be improved (e.g., solubility, prevention of degradation from protease and peptidase, and in vivo administration), the following additional FB-21 peptide mutants were constructed and tested for their ability to inhibit the interaction between FAM19A5 protein and LRRC4B: (1) d-form FB-21 peptide (“dFB-21”), (2) d-form FB-21 peptide with juxta-membrane (JM) sequence (“dFB-JM-31”), (3) d-form FB-21 peptide with BBB penetrating sequence at each end of the sequence (“dFB-BBB-39”), and (4) d-form FB-21 mutant peptide with DY replacement and additional JM sequence (“dFB-DY-JM31”). The sequence for d-form FB-21 peptide is set forth in SEQ ID NO: 153 (nYTYFTTVTVETLETQPGEEa; wherein the lowercase amino acids represent D-form of the amino acid, and the uppercase amino acids represent L-form of the amino acid). The sequence for dFB-BBB-39 is set forth in SEQ ID NO: 154 (n[…]l; wherein the lowercase amino acids represent D-form of the amino acid, and the uppercase amino acids represent L-form of the amino acid). The sequence for dFB-JM-31 is set forth in SEQ ID NO: 155 (n[…]a; wherein the lowercase amino acids represent D-form of the amino acid, and the uppercase amino acids represent L-form of the amino acid). The sequence for dFB-DY-JM31 is set forth in SEQ ID NO: 156 (n[…]a; wherein the lowercase amino acids represent D-form of the amino acid, and the uppercase amino acids represent L-form of the amino acid). The overall experimental methods were the same as those described immediately above.

FAM19A5 protein [4] = target: T1, FAM19A5 protein; assay: Co-immunoprecipitation of FLAG-tagged LRRC4 family deletion constructs/fragments with recombinant FAM19A5 in HEK293 cells; assay type: binding; conditions: HEK293 cells expressing FLAG-tagged construct, recombinant FAM19A5 1 μM 30 minutes; IP anti-FLAG, blot anti-FAM19A5 (3-2)
Experimental: To understand the interaction between FAM19A5 and members of the LRRC4 protein family, HEK293 cells were modified to express a FLAG-tagged member of the LRRC4 protein family, i.e., LRRC4C protein, LRRC4 protein, or LRRC4B protein. Then, the HEK293 cells or primary cortical neurons were treated with recombinant FAM19A5 protein (1 μM) for 30 minutes, and the binding between FAM19A5 protein and the different members of the LRRC4 protein family was assessed using both co-immunoprecipitation and immunofluorescence assays.
For the co-immunoprecipitation assay, cell lysates from the different FAM19A5-treated HEK293 cells were collected and immunoprecipitated with an anti-FLAG antibody, anti-FAM19A5 (1-65) antibody, or a human IgG antibody (control). Immunoprecipitated proteins were immunoblotted with anti-FLAG and anti-FAM19A5 (3-2) antibodies. For the immunofluorescence assay, the HEK293 cells treated with the recombinant FAM19A5 protein were immunostained with anti-FAM19A5 (3-2) (to detect FAM19A5 protein expression) and anti-FLAG antibodies (to detect member of the LRRC4 protein family). The primary cortical neurons treated with the recombinant FAM19A5 protein were immunostained with anti-FAM19A5 (3-2) and anti-LRRC4B antibodies. The nuclei were stained with Hoechst33342 (blue).
To determine the specific motif or domain of the LRRC4B protein that is responsible for the binding to a FAM19A5 protein, various FLAG-tagged LRRC4B deletion constructs were generated (see Table 6 below). HEK293 cells were transfected with the different deletion constructs and then treated with recombinant FAM19A5 protein as described in Example 1. Then, the cell lysates from the different HEK293 cells were immunoprecipitated with the anti-FLAG antibody. The immunoprecipitated proteins were immunoblotted with anti-FLAG and anti-FAM19A5 (3-2) antibodies.
As described in Example 2, all members of the LRRC4 protein family were capable of binding to FAM19A5 protein to varying degrees. Therefore, to compare the bindings domains, the amino acid sequences of the LRRC4B, LRRC4, and LRRC4C proteins were aligned. […] Therefore, to assess whether the corresponding positions of LRRC4 and LRRC4C were important in the binding of these proteins to FAM19A5 protein, cDNAs encoding either (i) LRRC4C protein fragment (amino acids 354-527 of SEQ ID NO: 3; SEQ ID NO: 66) or (ii) LRRC4 protein fragment (amino acids 353-527 of SEQ ID NO: 1; SEQ ID NO: 67) were constructed (see Table 7). HEK293 cells were transfected to express either of the protein fragments and then treated with recombinant FAM19A5 protein as described in Example 1. Then, the cell lysates from the different HEK293 cells were immunoprecipitated with the anti-FLAG antibody. The immunoprecipitated proteins were immunoblotted with anti-FLAG and anti-FAM19A5 (3-2) antibodies.

interaction between His-TEV LRRC4B and rFAM19A5, sequence (Q7Z5A7 44-132): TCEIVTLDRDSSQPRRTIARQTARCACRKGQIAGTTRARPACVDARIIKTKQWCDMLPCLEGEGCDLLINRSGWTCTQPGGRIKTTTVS
T1 sequence (Q7Z5A7 44-132): as above

| Molecule | neurite growth / neurite outgrowth [1] | binding to FAM19A5 protein (ELISA, in words) (FAM19A5 protein [2]) | further results |
| --- | --- | --- | --- |
| GYTYFTTVTVETLETQ [FB-16] | Increased neurite outgrowth | able to bind to recombinant FAM19A5 protein with high affinity |  |
| nYTYFTTVTVEDYETQPGEEALDEVMKTTKa ([dN]YTYFTTVTVEDYETQPGEEALDEVMKTTK[dA]; also: terminal modifications n and a on first and last residues) [dFB-DY-JM31] |  |  | fold more effective in inhibiting complex formation compared to the wild-type FB-21 ([3]; FIG. 22C, D-form amino acids at both termini): 4 fold |
| GYTYFTTVTVEDYETQPGEE [FB-21 (D12Y13)] |  |  | fold more effective in dissociating LRRC4B-FAM19A5 complex formation compared to FB-21 ([3]; from IC50 of Table 15): 2.4 fold; fold more effective in dissociating LRRC4B-FAM19A5 complex formation compared to FB-21 (W12Y13) ([3]; from IC50 of Table 15): 7 fold |
| GYTYFTTVTVETLETQPGEKEPPGPTTD [FB-28] | Increased neurite outgrowth | able to bind to recombinant FAM19A5 protein with high affinity |  |
| B1 |  | No saturation in binding was observed |  |
| B2 |  |  | binding to FAM19A5 protein (co-immunoprecipitation) (FAM19A5 protein [4]): able to bind to the FAM19A5 protein with varying degree; EC50 (FAM19A5 protein [2]; hFc-conjugated ectodomain coated 100 nM/well, FAM19A5 0.005-10 nM, 37° C. 1 hour): 640 pM |
